Measurements from the RNAGym collection of RNA variant scans (doi:10.1073/pnas.2313332121).
Fewer inactive variants are shown than the library holds.

B1: TPR 5TU (parent)
chain: GGAUCUUCUCGAUCUAACAAAAAAGACAAAUCUGCCACAAAGCUUGAGAGCAUCUUCGGAUGCAGAGGCGGCAGCCUUCGGUGGCGCGAUAGCGCCAACGUUCUCAACUAUGACACGCAAAACGCGUGCUCCGUUGAAUGGAGUUUAUCAUG

Variants of: B1
Test: polymerase ribozyme fitness, log enrichment relative to wild type (log ratio); higher = more active; in vitro selection for triplet polymerase activity
Outline: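 Mutant libraries were PCR-built and transcribed for each subunit of a heterodimeric triplet polymerase ribozyme and selected for one round in triplicate at −7 °C, frozen, before gel excision of extended constructs and streptavidin-bead capture. Input and output libraries were Illumina-sequenced, keeping genotypes with ≥10 input reads and ≥1 read per output. Fitness is a logarithmic ratio of genotype to wild-type enrichment, in base 2, using inverse-variance-weighted replicate averages.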

Variant	polymerase ribozyme fitness (log ratio)
C93U C95U C149A	≤ -4.2
C93U A110G	-3.25
C93U A110U	-4.1
C93U G94U A107C	≤ -4.2
C93G C103G	≤ -4.2
C93G A107G	≤ -4.2
A91G A106G	-1.93
C93G G94U C95A G128A	≤ -4.2
A91U G128A U139C A150U	≤ -4.2
A91C A115C	≤ -4.2
C93A A142U C149A	≤ -4.2
A91G U104G A115C	-4.06
C93G A97U A121G	≤ -4.2
A91G G112C	-3.76
A91C A113G A138U	≤ -4.2
C93U C149U	-1.57
C93U C149G	-4.08
G92U A97C	-0.00996
A91G C93U	-3.88
C93U G117A A142C	-4.07
U90A A106C A121U	≤ -4.2

Variant	polymerase ribozyme fitness (log ratio)
G92U G94C A106G C123A U145C	-1.97
C93A U101G	-3.29
C93A C96A	-3.78
C93A C96U	-3.3
A91C G126A	-4.03
G92C U139A	-4.2
G92U C93U	-2.13
G92U C108U C125G G140C	≤ -4.2
C93G U145G	-2.53
G92C U101G	-0.874
A91G C131A A137C G143C	≤ -4.2
C93G A142U	-3.03
C93G A142C	-4.02
C93A U148G G152U	≤ -4.2
C93G C105A A107G G141U	≤ -4.2
C93U U109C	≤ -4.2
C93A U101C G124U	-2.74
G92U C93U A138C	≤ -4.2
A91U C114U U148G	≤ -4.2
C93U C99G	-1.97
C93U C99U	-2.8

Variant	polymerase ribozyme fitness (log ratio)
C93U C99A	-3.72
G92C U104C	-1.35
G92C U104G	-1.85
C93A C116U	-1.88
C93U C99G G136A	-0.753
G92C U146A	-0.323
G92A C108U	≤ -4.2
C93G G141C	-3.36
A91U A142U	-3.67
A91G A121U	-3.01
G92U C118A	-1.05
A91U C108A C114A C129A U146A	≤ -4.2
C93U G141A U146G	-3.48
C93A A138U	-4.18
A91G	-2.77
A91C	≤ -4.2
C93U G136A	-1.1
C93U G136C	-4.02
C93U C103U A107C C125A	≤ -4.2
C93G U102G	≤ -4.2
C93U A106C C129G G143A	-3.64

Variant	polymerase ribozyme fitness (log ratio)
G92A C116A G143C A150G	≤ -4.2
C93U A150G	-1.93
A91C A150G	≤ -4.2
U90G C96A C131G	≤ -4.2
A91G G92A C125G C129G A137G	≤ -4.2
G92U G133U	-3.41
G92A C99U G117U U151G	≤ -4.2
C93U C105U	-2.55
C93A G94A	-2.93
C93A U104G	-2.89
A89U G143U	-2.38
A91U C99G	≤ -4.2
G92C G124U C129U A138G U139G	≤ -4.2
G92U G124U G141C	-0.283
A91G C95G	-3.67
G92A A120G A121C U148C	-4.16
A91C A120C	≤ -4.2
C93A C95U	-3.37
C93A C95G	≤ -4.2
C93U G94U	-1.43
U90G C93G C99U	≤ -4.2
